Source: the supplement of paper PMC10724198
± gives the standard deviation of the averaged measurements.

System: Saccharomyces cerevisiae
Assay: protein stability index of tFT-peptide fusion (C-terminal peptide) (PSI (0-1 scale)); higher = more stable (slower turnover)
Settings: temperature: 30 C
Protocol: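 MPS profiling in S. cerevisiae of the yeast C-terminome library: the last 12 aa of each annotated ORF are fused to the C-terminus of a sfGFP-mCherry timer, after a GGGS linker. Cells are FACS-sorted into 8 mCherry/sfGFP bins and deep-sequenced. PSI runs from 0 (unstable) to 1 (stable); wild type and das1Δ backgrounds, two technical replicates each.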

[1] = genetic background: das1 deletion

| Sequence | protein stability index [1] | protein stability index (genetic background: wild type) |
| --- | --- | --- |
| VLREEVKKEEEN [KRS1 C-terminal 12 aa] | 0.6913 ± 0.006 | 0.7 ± 0.025 |
| LNNIKTIIEGPE [XYL2 C-terminal 12 aa] | 0.676 ± 0.058 | 0.716 ± 0.054 |
| CLSGIGLFPVSS [YHL030W-A C-terminal 12 aa] | 0.6846 ± 0.0057 | 0.69 ± 0.021 |
| TSCNLNSSVVRS [YOR186C-A C-terminal 12 aa] | 0.708 ± 0.035 | 0.695 ± 0.0014 |
| QTTRMLNDLIVS [MGA2 C-terminal 12 aa] | 0.664 ± 0.01 | 0.667 ± 0.017 |
| PLMTVLGLEKKK [DPC13 C-terminal 12 aa] | 0.703 ± 0.021 | 0.675 ± 0.064 |
| NTQVDDETKKNN [YDC1 C-terminal 12 aa] | 0.7078 ± 0.0056 | 0.7367 ± 0.0051 |
| LRTVASRLKERY [PNO1 C-terminal 12 aa] | 0.698 ± 0.013 | 0.706 ± 0.056 |
| PEKGSGFNTNLG [DCS2 C-terminal 12 aa] | 0.6973 ± 0.0014 | 0.738 ± 0.025 |
| YIARNQKKGMSI [ECT1 C-terminal 12 aa] | 0.685 ± 0.011 | 0.67 ± 0.015 |
| VRYVIIHRHTST [RMD8 C-terminal 12 aa] | 0.648 ± 0.0073 | 0.599 ± 0.0066 |
| KYFADLTQSITK [YBR242W C-terminal 12 aa] | 0.719 ± 0.051 | 0.687 ± 0.029 |
| KKTAIDKLITLL [AIM18 C-terminal 12 aa] | 0.681 ± 0.019 | 0.342 ± 0.017 |
| VGLLTAIIMSIM [PST1 C-terminal 12 aa] | 0.576 ± 0.011 | 0.529 ± 0.021 |
| EDGDNWEVVGKK [TIF3 C-terminal 12 aa] | 0.7056 ± 0.0056 | 0.727 ± 0.012 |
| NEDLGLSDIKVE [ZPR1 C-terminal 12 aa] | 0.694 ± 0.0078 | 0.68742 ± 0.00015 |
| KSTNCCLIYDST [KKQ8 C-terminal 12 aa] | 0.7052 ± 0.00093 | 0.675 ± 0.036 |

| Sequence | protein stability index [1] | protein stability index (genetic background: wild type) |
| --- | --- | --- |
| DFFDYDLLFQND [PIP2 C-terminal 12 aa] | 0.767 ± 0.021 | 0.788 ± 0.034 |
| LLQVYDRVKASM [TOP3 C-terminal 12 aa] | 0.67 ± 0.00086 | 0.5992 ± 0.0013 |
| LLLGTVSATNAI [YPL062W C-terminal 12 aa] | 0.6878 ± 0.004 | 0.706 ± 0.038 |
| TILHQQVNSKLH [YHR180W C-terminal 12 aa] | 0.7181 ± 0.00078 | 0.627 ± 0.02 |
| LEDSTRVYSNLM [ARP1 C-terminal 12 aa] | 0.693 ± 0.007 | 0.6835 ± 0.0043 |
| AFEELYMGNCND [SIR1 C-terminal 12 aa] | 0.7218 ± 0.0021 | 0.674 ± 0.035 |
| NVKVKALQRMTW [TIS11 C-terminal 12 aa] | 0.6967 ± 0.0018 | 0.729 ± 0.039 |
| DEDEFENQRQQF [YIL055C C-terminal 12 aa] | 0.71 ± 0.0099 | 0.709 ± 0.076 |
| EHIGAQNTGDGR [YER187W C-terminal 12 aa] | 0.6894 ± 0.0014 | 0.679 ± 0.033 |
| DLSLVFGNHEST [HEM15 C-terminal 12 aa] | 0.694 ± 0.038 | 0.727 ± 0.02 |
| LFSVLVALLALL [CRH1 C-terminal 12 aa] | 0.661 ± 0.037 | 0.48 ± 0.017 |
| KALRELQAEMGL [SNF7 C-terminal 12 aa] | 0.696 ± 0.0095 | 0.688 ± 0.025 |
| IYKYCCCCFCCC [YCK3 C-terminal 12 aa] | 0.6598 ± 0.0038 | 0.594 ± 0.046 |
| ETNNVFQDAILR [DOC1 C-terminal 12 aa] | 0.698 ± 0.013 | 0.683 ± 0.017 |
| DKKVNNNIILFL [YAL037C-A C-terminal 12 aa] | 0.692 ± 0.042 | 0.704 ± 0.011 |
| LLDGGDGDEDAV [GON7 C-terminal 12 aa] | 0.6942 ± 0.002 | 0.7 ± 0.036 |
| EECVKVQWESRT [TSR4 C-terminal 12 aa] | 0.681 ± 0.051 | 0.69407 ± 0.00052 |
